Test: soluble on expression in E. coli; label from the status in PepcDB or PDB records

Sequence | soluble on expression in E. coli
MGSDKIHHHHHHMIDQLYRKAVLTVAERPQVEQLARQKMWNLAERFVAGESIESAIQAVQALERDGIAGNLDLLGEFIDSPAKCTEFADDVIKLIEAAHAAGIKPYVSIKLSSVGQGKDENGEDLGLTNARRIIAKAKEYGGFICLDMEDHTRVDVTLEQFRTLVGEFGAEHVGTVLQSYLYRSLGDRASLDDLRPNIRMVKGAYLEPATVAYPDKADVDQNYRRLVFQHLKAGNYTNVATHDERIIDDVKRFVLAHGIGKDAFEFQMLYGIRRDLQKQLAAEGYRVRVYLPYGRDWYAYFSRRIAETPRNAAFVVQGMLKG | not soluble
MGSDKIHHHHHHMIEFAAITSVISKYAPQASQLIIKQAQKNEAVINILHELKLNPTQISDDIDTVYIYALIRYGVFKHEAILNLFREKEIKGCFWDAYSSNTPFKFVENAKKLLNQNSELKMQLINAKINFLAEIEEFGEAFIAVAKQTKSSKYQPYPDWNLDVYSKEFKALIFEKTRLFCGRDFVFKAIQKFFTTQAKGYFSIVGDAGMGKSAIAAKYVLAYKFPCYFNIFAEGRNKPEKFLASIRQQLIKRYSLQNADNTDLRTLLQKASEELKGQKLVIVVDALDEVEQEGNGNLLDLPQNLPNGVYFLLTRRLYNQETKRLTLSPDTPVYELDLTQGDYTALSQEDVKEYIELYLNNDSDLKNWINERHISEDSFTQEIAVKSENNFIYLRYLLPGISEGKYNDLNLKGLPQGLQDYYTTHWNRMGMDKESNEKKVKILYILVERGEPISINMITEILDEEEYEVKSVLNEWVEYVTPKVNVDEHKTYYSIYHRSFLEFLKSQDKLGKGRKLFREVNKSMANYMLKEMA | not soluble
MGSDKIHHHHHHMIERIYLAKPRGFCAGVVMAIQAVEKAAVREDKPVTVYHSIVHNHTVVERLSEGGRVHFVEDLDAVDALPDSGDTVIFSAHGISPAVRERARSLGLSTIDATCPLVTKVHTEAKKYAREGYTILLIGDSAGHQEVIGTRGEAPENTILVGVLGKTGPGLNDPHAVQVPDPERLVVLTQTTLSVDDTRKTVDILKARFPALVVPPSEDLCYATKNRQDAVKNIAPNVDAFLVLTSTHSSNGMRLLELAEAECGRAYRLETAADLTRLEQNGDLGGVRSVGITSAASTPDDLVQDVVAHFRALNPALEVIEEGEWENIEFREPKKIAPTQELPRTMQ | not soluble
MGSDKIHHHHHHMIESIQELLQKEAQAVLNIPVTDAYEKAVELIVEQIHRKKGKLVTSGMGKAGQIAMNIATTFCSTGIPSVFLHPSEAQHGDLGILQENDLLLLISNSGKTREIVELTQLAHNLNPGLKFIVITGNPDSPLASESDVCLSTGHPAEVCTLGMTPTTSTTVMTVIGDILVVQTMKRTEFTIEEYSKRHHGGYLGEKSRKLCVK | not soluble
MGSDKIHHHHHHMIFFNKDEQLENIGNGILDATWAAFPTLARNQIALTWVVYDPPVRVNTGGALTPNAFWDHPVRGFTYRGVERIYPASVVKLFYLVAVNEWLEKGMSQTSKELERALRDMIVDSSNDATSLVVDILSGTTSGPELPTGPFETWKYQRNIVNRYYQSLGWEEMETINVCQKTWGDGPYGRERAFAGELLENRNMLTTNAIARLLHSIVGGVAVSSARSQAMMALLKRPLNDLPTDTEENQVTGFLGGGLPQNAQIWSKAGWTSQVRHDAAYIELPEQRPYLLVVFTEGKAQAKSQAILPFVSQQVADAISSL | not soluble
MGSDKIHHHHHHMIFLNRYGFPDQSATSRMISSLAMSMAQRGMNVTVVTSREIHNHPGSVLPATETVRGIHIQRLSSGRFGRHNLMRRSIDYLLFQVLAFAWLLRNVRATDTVIVCTDPPLLSVMSSIAIRLKGALMVNWIMDLFPETAIELGFFRKRARWLAPWLTRARNWSLRSPGMVVCPTEKMAEFLFTQGIAKDRVSVLHHWSDGEEIYPVLPEGNSLRKAWGLQDVFVVGYSGNFGRAHDFGTMLAAAKRLEHRPDIRFLLIGGGHQHAAVKTVVQDLGLQNVIFKPLQPVENLAESLSVADVHLVSLLPELEHCIIPSKFYGIMAAGRPTIFIGDPDGEVPRILRAKRCGSNVEIGETDKLTGIIEELCDDPDTTKAMGDAARRLLCTDYSREKAADAWAALIAGLQTVEPSRPHLAQGISP | not soluble
